Patent publication US20150344570A1 (published 2015)

T1: FcγRIIb (human, UniProt P31994 43-217)
T1 construct: extracellular domain; Soluble extracellular domain with C-terminal His tag, used as analyte in Biacore; also called FcgRIIb; 2b; not shown: His tag attached to the C terminus
T1 sequence (looked up): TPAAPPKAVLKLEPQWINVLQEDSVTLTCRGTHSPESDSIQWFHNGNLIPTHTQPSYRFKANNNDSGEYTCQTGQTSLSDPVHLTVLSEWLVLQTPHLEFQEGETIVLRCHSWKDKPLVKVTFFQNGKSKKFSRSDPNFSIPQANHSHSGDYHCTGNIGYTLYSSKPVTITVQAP


How the values were obtained:
[1] = target: T1, FcγRIIb; assay: SPR (Biacore), antibody captured, FcγR as analyte; relative to GpH7-A5/GpH7-B3/GpL16-k0 = 100
[2] = target: T2, FcγRIa (human, UniProt P12314 16-292); assay: as above
T2 construct: extracellular domain; Soluble extracellular domain with C-terminal His tag, used as analyte in Biacore; also called FcgRI; 1a; not shown: His tag attached to the C terminus
T2 sequence (P12314 16-292): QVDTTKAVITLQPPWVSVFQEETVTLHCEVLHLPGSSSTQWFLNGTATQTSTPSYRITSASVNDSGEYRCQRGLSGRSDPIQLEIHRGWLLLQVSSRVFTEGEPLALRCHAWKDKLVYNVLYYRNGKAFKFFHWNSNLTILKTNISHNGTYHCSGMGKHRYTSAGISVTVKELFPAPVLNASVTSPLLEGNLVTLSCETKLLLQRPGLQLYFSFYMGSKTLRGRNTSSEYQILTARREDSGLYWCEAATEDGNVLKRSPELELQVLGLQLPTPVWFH

[3] = target: T2, FcγRIa; assay: SPR (Biacore); He/Con_1a divided by He/Con_2b (binding to FcγRIa against binding to FcγRIIb)
Method: The heterodimerized antibodies He Abs in which one of the H chains was introduced with an alteration were assayed for their binding activities to each activating FcγR and inhibitory FcγR according to the method described in Example 4. […] The activating FcγRs in FIGS. 26, 27, 28, and 29 are FcγRIa, FcγRIIa (R), FcγRIIa (H), and FcγRIIIa, respectively.
Analysis of interaction between objective antibody and the FcγR was carried out using Biacore T100 (GE Healthcare). HBS-EP+ (GE Healthcare) was used as the running buffer, and the measurement temperature was set to 25° C. Chips produced by immobilizing the antigen peptide by the amine coupling method to a Series S Sencor Chip CM5 (GE Healthcare), or alternatively, chips produced by allowing preliminarily biotinylated antigen peptides to interact with and immobilize onto a Series S Sensor Chip SA (certified) (GE Healthcare) were used. Antibodies of interest were captured onto an antigen peptide-immobilized chip, and allowed to interact to each FcγR diluted with running buffer. To regenerate and repeatedly use the chip, the antibodies captured on the chip were washed off by reacting 10 mM glycine-HCl, pH 1.5.

| He/Con_2b [1] | He/Con_1a [2] | He_1a/2b (Ia/IIb) [3] [ratio] | Binder |
| --- | --- | --- | --- |
| 221 % of control (=100) | 96 % of control (=100) | 0.43 | GpH7-A5/GpH7-B3 variant P238_09D/GpL16-k0 (antibody, human IgG1, kappa, Heterodimerized anti-glypican-3 IgG1; alteration in the GpH7-B3 chain only; also called He Ab) heavy 1: not shown heavy 2: not shown light: DIVMTQSPLSLPVTPGEPASISCQASESLVHSNRNTYLHWYLQKPGQSPQLLIYKVSNRFSGVPDRFSGSGSGTDFTLKISRVEAEDVGVYYCSQNTHVPPTFGQGTKVEIERTVAAPSVFIFPPSDEQLKSGTASVVCLLNNFYPREAKVQWKVDNALQSGNSQESVTEQDSKDSTYSLSSTLTLSKADYEKHKVYACEVTHQGLSSPVTKSFNRGEC |
| 108 % of control (=100) | 82.8 % of control (=100) | 0.77 | GpH7-A5/GpH7-B3 variant G237_19Q/GpL16-k0 (antibody, human IgG1, kappa, Heterodimerized anti-glypican-3 IgG1; alteration in the GpH7-B3 chain only; also called He Ab) heavy 1: not shown heavy 2: not shown light: DIVMTQSPLSLPVTPGEPASISCQASESLVHSNRNTYLHWYLQKPGQSPQLLIYKVSNRFSGVPDRFSGSGSGTDFTLKISRVEAEDVGVYYCSQNTHVPPTFGQGTKVEIERTVAAPSVFIFPPSDEQLKSGTASVVCLLNNFYPREAKVQWKVDNALQSGNSQESVTEQDSKDSTYSLSSTLTLSKADYEKHKVYACEVTHQGLSSPVTKSFNRGEC |
| 106 % of control (=100) | 84.8 % of control (=100) | 0.8 | GpH7-A5/GpH7-B3 variant L235_09D/GpL16-k0 (antibody, human IgG1, kappa, Heterodimerized anti-glypican-3 IgG1; alteration in the GpH7-B3 chain only; also called He Ab) heavy 1: not shown heavy 2: not shown light: DIVMTQSPLSLPVTPGEPASISCQASESLVHSNRNTYLHWYLQKPGQSPQLLIYKVSNRFSGVPDRFSGSGSGTDFTLKISRVEAEDVGVYYCSQNTHVPPTFGQGTKVEIERTVAAPSVFIFPPSDEQLKSGTASVVCLLNNFYPREAKVQWKVDNALQSGNSQESVTEQDSKDSTYSLSSTLTLSKADYEKHKVYACEVTHQGLSSPVTKSFNRGEC |
| 232 % of control (=100) | 102 % of control (=100) | 0.44 | GpH7-A5/GpH7-B3 variant P238_10E/GpL16-k0 (antibody, human IgG1, kappa, Heterodimerized anti-glypican-3 IgG1; alteration in the GpH7-B3 chain only; also called He Ab) heavy 1: not shown heavy 2: not shown light: DIVMTQSPLSLPVTPGEPASISCQASESLVHSNRNTYLHWYLQKPGQSPQLLIYKVSNRFSGVPDRFSGSGSGTDFTLKISRVEAEDVGVYYCSQNTHVPPTFGQGTKVEIERTVAAPSVFIFPPSDEQLKSGTASVVCLLNNFYPREAKVQWKVDNALQSGNSQESVTEQDSKDSTYSLSSTLTLSKADYEKHKVYACEVTHQGLSSPVTKSFNRGEC |
| 152 % of control (=100) | 79.6 % of control (=100) | 0.52 | GpH7-A5/GpH7-B3 variant G237_15Y/GpL16-k0 (antibody, human IgG1, kappa, Heterodimerized anti-glypican-3 IgG1; alteration in the GpH7-B3 chain only; also called He Ab) heavy 1: not shown heavy 2: not shown light: DIVMTQSPLSLPVTPGEPASISCQASESLVHSNRNTYLHWYLQKPGQSPQLLIYKVSNRFSGVPDRFSGSGSGTDFTLKISRVEAEDVGVYYCSQNTHVPPTFGQGTKVEIERTVAAPSVFIFPPSDEQLKSGTASVVCLLNNFYPREAKVQWKVDNALQSGNSQESVTEQDSKDSTYSLSSTLTLSKADYEKHKVYACEVTHQGLSSPVTKSFNRGEC |
| 150 % of control (=100) | 97.8 % of control (=100) | 0.65 | GpH7-A5/GpH7-B3 variant L234_09D/GpL16-k0 (antibody, human IgG1, kappa, Heterodimerized anti-glypican-3 IgG1; alteration in the GpH7-B3 chain only; also called He Ab) heavy 1: not shown heavy 2: not shown light: DIVMTQSPLSLPVTPGEPASISCQASESLVHSNRNTYLHWYLQKPGQSPQLLIYKVSNRFSGVPDRFSGSGSGTDFTLKISRVEAEDVGVYYCSQNTHVPPTFGQGTKVEIERTVAAPSVFIFPPSDEQLKSGTASVVCLLNNFYPREAKVQWKVDNALQSGNSQESVTEQDSKDSTYSLSSTLTLSKADYEKHKVYACEVTHQGLSSPVTKSFNRGEC |
| 149 % of control (=100) | 97.1 % of control (=100) | 0.65 | GpH7-A5/GpH7-B3 variant L235_15Y/GpL16-k0 (antibody, human IgG1, kappa, Heterodimerized anti-glypican-3 IgG1; alteration in the GpH7-B3 chain only; also called He Ab) heavy 1: not shown heavy 2: not shown light: DIVMTQSPLSLPVTPGEPASISCQASESLVHSNRNTYLHWYLQKPGQSPQLLIYKVSNRFSGVPDRFSGSGSGTDFTLKISRVEAEDVGVYYCSQNTHVPPTFGQGTKVEIERTVAAPSVFIFPPSDEQLKSGTASVVCLLNNFYPREAKVQWKVDNALQSGNSQESVTEQDSKDSTYSLSSTLTLSKADYEKHKVYACEVTHQGLSSPVTKSFNRGEC |
| 180 % of control (=100) | 82.5 % of control (=100) | 0.46 | GpH7-A5/GpH7-B3 variant G237_18N/GpL16-k0 (antibody, human IgG1, kappa, Heterodimerized anti-glypican-3 IgG1; alteration in the GpH7-B3 chain only; also called He Ab) heavy 1: not shown heavy 2: not shown light: DIVMTQSPLSLPVTPGEPASISCQASESLVHSNRNTYLHWYLQKPGQSPQLLIYKVSNRFSGVPDRFSGSGSGTDFTLKISRVEAEDVGVYYCSQNTHVPPTFGQGTKVEIERTVAAPSVFIFPPSDEQLKSGTASVVCLLNNFYPREAKVQWKVDNALQSGNSQESVTEQDSKDSTYSLSSTLTLSKADYEKHKVYACEVTHQGLSSPVTKSFNRGEC |
| 114 % of control (=100) | 75.1 % of control (=100) | 0.66 | GpH7-A5/GpH7-B3 variant G237_10E/GpL16-k0 (antibody, human IgG1, kappa, Heterodimerized anti-glypican-3 IgG1; alteration in the GpH7-B3 chain only; also called He Ab) heavy 1: not shown heavy 2: not shown light: DIVMTQSPLSLPVTPGEPASISCQASESLVHSNRNTYLHWYLQKPGQSPQLLIYKVSNRFSGVPDRFSGSGSGTDFTLKISRVEAEDVGVYYCSQNTHVPPTFGQGTKVEIERTVAAPSVFIFPPSDEQLKSGTASVVCLLNNFYPREAKVQWKVDNALQSGNSQESVTEQDSKDSTYSLSSTLTLSKADYEKHKVYACEVTHQGLSSPVTKSFNRGEC |
